From patent US20100285988

Legend:
[1] = tested on: βCTF-FLAG (recombinant β-secretase cleaved APP C-terminal fragment)
[2] = tested on: Aβ17-23 (LVFFAED) peptide
[3] = tested on: βCTFΔ (Aβ17-23 deleted form of βCTF)

“γ-secretase (human; HeLa cell membrane / solubilized HeLa membrane; endogenous in HEK293 cells)” was tested, and the Vmax [1] was “Vmax values are 16±1 and 215±24 min^-1 µg^-1 for βCTF and βCTFΔ, respectively”, the “apparent Km (Aβ40 production, ECL)” value [1] was “the apparent Km is 0.47±0.09 µM for βCTF” and the “rate of γ-secretase hydrolysis (X40 product, ECL) relative to αCTF-FLAG” value [1] was “The rate of γ-secretase hydrolysis of βCTF-FLAG is 12-fold greater than for hydrolysis of αCTF-FLAG”. The “potency on Notch cleavage relative to APP-derived substrates” value [2] was “the potency of this peptide is 6-fold less potent in the proteolytic cleavage of Notch by γ-secretase than that of APP-derived substrates”, the Vmax [3] was “Vmax values are 16±1 and 215±24 min^-1 µg^-1 for βCTF and βCTFΔ, respectively” and the “Vmax/Km or kcat/Km relative to βCTF” value [3] was “is 42-fold greater than for the βCTF substrate”. The “apparent Km (Aβ40 production, ECL)” value [3] was 0.26±0.09 µM for βCTFA.
